From publication PMC8463545

How the values were obtained:
Assay in all cases: SPR
Conditions in all cases: EMSA: 10 mM Tris-HCl pH 7.5, 50 mM KCl, 1 mM DTT, 0.4% glycerol, 20 uL, 28 C, 25-30 min; 5% native gel, 0.5x TBE, 4 C; SPR conditions not given
[1] = system: HtsH1C-Flag-His (Lysobacter enzymogenes OH11)
[2] = system: HtsH2C-HA-His (Lysobacter enzymogenes OH11)
[3] = system: HtsH3C-Myc-His (Lysobacter enzymogenes OH11)

Substance: plafB (SPR)
- Kd [1]: 536 nM
- Kd [2]: 1380 nM
- Kd [3]: 249 nM
